# Assay results: US20080220446A1, “Method for Detecting and/or Removing Protein and/or Peptide Comprising a Cross-Beta Structure From an Aqueous Solution Comprising a Protein” (priority 2005, published 2008)
# T1: factor XII (Homo sapiens, UniProt P00748)
# T1 construct: purified human factor XII from plasma (Calbiochem); purchased Calbiochem; host or cells: human plasma
# T1 sequence (P00748 20-615): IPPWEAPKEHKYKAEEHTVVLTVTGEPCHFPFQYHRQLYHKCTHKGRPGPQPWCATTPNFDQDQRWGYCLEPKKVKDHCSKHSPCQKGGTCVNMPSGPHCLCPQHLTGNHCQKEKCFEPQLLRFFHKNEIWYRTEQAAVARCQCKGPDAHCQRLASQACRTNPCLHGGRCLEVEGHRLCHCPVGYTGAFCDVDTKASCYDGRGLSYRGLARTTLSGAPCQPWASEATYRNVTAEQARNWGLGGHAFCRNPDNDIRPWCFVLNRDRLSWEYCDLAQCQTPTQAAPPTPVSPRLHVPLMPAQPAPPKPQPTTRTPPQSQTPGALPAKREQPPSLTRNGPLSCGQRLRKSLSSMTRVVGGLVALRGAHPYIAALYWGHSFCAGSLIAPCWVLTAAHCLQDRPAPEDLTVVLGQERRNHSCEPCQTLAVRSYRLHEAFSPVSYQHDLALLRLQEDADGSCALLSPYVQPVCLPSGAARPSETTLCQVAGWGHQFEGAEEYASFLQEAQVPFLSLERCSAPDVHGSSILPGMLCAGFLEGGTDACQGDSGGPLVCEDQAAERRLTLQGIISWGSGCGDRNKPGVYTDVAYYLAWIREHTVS
# How the values were obtained:
# tPA [1] = molecular target: T2, tPA (Homo sapiens, UniProt P00750); test: ELISA, binding of β2GPI to immobilized tPA
# T2 sequence (P00750 36-562): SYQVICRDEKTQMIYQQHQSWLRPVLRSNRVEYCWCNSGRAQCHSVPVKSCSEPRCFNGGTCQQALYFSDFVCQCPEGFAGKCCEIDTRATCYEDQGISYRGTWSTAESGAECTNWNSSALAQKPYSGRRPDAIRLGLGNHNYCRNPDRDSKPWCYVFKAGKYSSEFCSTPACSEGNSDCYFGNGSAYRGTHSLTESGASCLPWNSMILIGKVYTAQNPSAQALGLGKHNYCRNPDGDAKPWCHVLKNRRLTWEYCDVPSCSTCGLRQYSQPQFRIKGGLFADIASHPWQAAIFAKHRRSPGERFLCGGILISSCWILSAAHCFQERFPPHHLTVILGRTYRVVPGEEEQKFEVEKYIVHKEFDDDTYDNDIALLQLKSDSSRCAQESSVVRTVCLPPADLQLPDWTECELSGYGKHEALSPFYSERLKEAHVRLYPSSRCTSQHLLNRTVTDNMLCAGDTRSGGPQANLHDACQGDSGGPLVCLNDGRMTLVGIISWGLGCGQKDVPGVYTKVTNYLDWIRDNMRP
# Experimental: (§1) Binding of purified human factor XII from plasma (Calbiochem) or of purified recombinant human tPA to β2GPI purified from human plasma, or to recombinant human β2GPI was tested in an ELISA. Ten μg of factor XII or tPA in PBS was coated onto wells of a Costar 2595 ELISA plate (Cambridge, USA) and incubated with concentration series of the two β2GPI preparations. Binding of β2GPI was assessed with monoclonal antibody 2B2^22.
# tPA [2] = molecular target: T2, tPA; test: Plasminogen-activation assay (tPA activation, S-2251); format: biochemical; details: β2GPI preparations, 100 μg ml^−1
# Experimental: Plasmin (Pls) activity was assayed as described^16. Peptides and proteins that were tested for their stimulatory ability were regularly used at 100 μg ml^−1. […] Chromogenic substrate S-2251 (Chromogenix, Instrumentation Laboratory SpA, Milano, Italy) was used to measure Pls activity. Conversion of zymogen factor XII (#233490, Calbiochem, EMD Biosciences, Inc., San Diego, Calif.) to proteolytically active factor XII (factor XIIa) was assayed by measurement of the conversion of chromogenic substrate Chromozym-PK (Roche Diagnostics, Almere, The Netherlands) by kallikrein. Chromozym-PK was used at a concentration of 0.3 mM. […] The conversion of Chromozym-PK was recorded kinetically at 37° C. for at least 60 minutes. […]
# Formulated protein therapeutics were obtained from the local hospital pharmacy and were used as supplied by the manufacturers. […] Enhancement in fluorescence of ThT and Congo red was measured with all formulated protein therapeutics. […]
# To prepare structurally altered ovalbumin (OVA) with amyloid cross-β structures, purified OVA (Sigma, A-7641, lot 071k7094) was heated to 85° C. […] Native OVA (nOVA) and heat-denatured OVA (dOVA) were tested in the ThT fluorescence assay and in the Plg-activation assay. In the fluorescence assay and in the Plg-activation assay, 25 and 100 μg ml^−1 nOVA and dOVA were tested, respectively. […]
# factor XII = molecular target: T1, factor XII; test: ELISA, binding of β2GPI to immobilized factor XII
# Experimental: as §1
molecule,measurement,setting,value
recombinant β2GPI: recombinant human β2-glycoprotein I made using insect cells (protein) GRTCPKPDDLPFSTVVPLKTFYEPGEEITYSCKPGYVSRGGMRKFICPLTGLWPINTLKCTPRVCPFAGILENGAVRYTTFEYPNTISFSCNTGFYLNGADSAKCTEEGKWSPELPVCAPIICPPPSIPTFATLRVYKPSAGNNSLYRDTAVFECLPQHAMFGNDTITCTTHGNWTKLPECREVKCPFPSRPDNGFVNYPAKPTLYYKDKATFGCHDGYSLDGPEEIECTKLGNWSAMPSCKASCKVPVKKATVVYQGERVKIQEKFKNGMLHGDKVSFFCKNKEKKCSYTEDAQCIDGTIEVPKCFKEHSSLAFWKTDASDVKPC,binding to tPA,tPA [1],bind
same,stimulation of tPA-mediated conversion of Plg to Pls,tPA [2],stimulate tPA-mediated conversion of Plg to Pls
same,binding to factor XII,factor XII,bind
